According to the supplement of paper PMC9170038:

Tested on: MS2 coat protein
Experiment: apparent KD of MS2 coat protein; higher = weaker reporter binding
Settings: Eterna round: R107
How it was run: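 Each design's apparent KD comes from the median of binding-curve fits to its normalised clusters. Those clusters carried RNA switches transcribed on-chip from Illumina sequencing clusters. SNAP-549-labelled MS2 coat protein was titrated onto them in twofold steps (0.7 or 1.5 nM to 3 µM; per step 0.8–1.5 h down to 10–20 min). Conditions were 100 mM Tris-HCl pH 7.5, 80 mM KCl, 4 mM MgCl2, without or with constant ligand.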

[1] = input ligand: theophylline 20 uM
[2] = input ligand: theophylline 2 mM
[3] = input ligand: tryptophan 2.4 mM

Sequence | apparent KD of MS2 coat protein (input ligand: arginine 13.2 mM) [nM] | apparent KD of MS2 coat protein (input ligand: none) [nM] | apparent KD of MS2 coat protein [1] [nM] | apparent KD of MS2 coat protein [2] [nM] | apparent KD of MS2 coat protein [3] [nM]
GGACCAUGGAGCGAUACCAGCUUGAGUGUACUGGCCAGGUACAUGAGGAUCACCCAUGUAAGCCCUUGGCAGCGCUCCAUGGUCC [#1 Exclusion - Theophylline B Attempt #25 (HarryS)] | 8.38 | 9.95 | 14.7 | 30.8 | 12.3
GUGCCGCAUUCACAUGAGGAUCACCCAUGUCGAGGACCGGUACGGCCGCCACUCGACGUGCUUACAGGUCCUUUACGGCCCAAUA [Biedxele] | 30.7 |  | 71.3 | 36.9 | 
ACAUGAGGAUCACCCAUGUUCAUGCGGGAAGGAGCGUGCGGAAGCACAGGUAGGUCGCCCUCAAUAUCUAACGUUACGUUCAUGA [#26 Same State - Arginine A] | 13.7 | 14.3 | 18.4 | 14.4 | 15.5
GGUGGCUGGAUCGAUACCAGCCACCACCGAUAGACCACAUGAGGAUCACCCAUGUUGGGUGGCCCUUGGCAGCGGUCCAGCUGCC [#1 Same State - Theophylline B Attempt #5 (HarryS)] | 78.8 | 587 | 1010 | 1240 | 851
ACAUGAGGAUCACCCAUGUAAUCAUCAGAAGGAGCGUGGAAUAACACAGGUAGGUCGCUGAUGUUAUGUUAAAAUGGUUCGUGAA [JR_ExcArginiA_Sub002] | 18.8 | 19.1 | 23.7 | 17.3 | 22.5
GGCACCAGGAGAAGGAGCGUGAAGACAUGAGGAUCACCCAUGUAGAGGCGCCGACGGCGUUCGCAGGUAGGUCGCUCCUGGUGCC [#1 Same State - Arginine B Attempt #16 (HarryS)] | 20.9 | 21 | 32.3 | 23.5 | 29.3
CAUCCUAGUACAUGAGGAUCACCCAUGUAUCGAGGACCGGUACGGCCGCCACUCGAAUGGCGGAUCGUUGAUCCUUUAGGAUGAA [Tryp A Ex t4] | 16.5 | 14.3 | 20.7 | 20.9 | 19.2
AUUUAUUGUCGUGAUACCAGACAUACAUGAGGAUCACCCAUGUUAAGUAACAUUUUUUAGGUCCCUUGGCAGCACUUUUUAAUUA [JR_Nu_SSTheophyB_Sub018] | 30.2 |  | 36.1 |  | 25.4
AAGAUACUCUGAAGGAGCGUCAUAAAACAUGAGGAUCACCCAUGUGCGCGGGUGUAAUUAUGACAGGUAGGUCGCAGAGUAUUUA [Arg B SS t2] | 424 | 179 | 515 | 601 | 442
AAUUAUCAGUCGGCCGCCACUGACACAUGAGGAUCACCCAUGUAACUUGGGUUAAAUUUACUGAACAGGACCGGGACAAAGGCUA [JR_ExcTryptoB_Sub009] | 114 |  | 193 | 203 | 
AACAUGAGGAUCACCCAUGUCAUGUUGGAUACCAGCCAAUAAUAAGGCCCUUGGCAGCUAUAGAUCGAUGAUCCAUGAGGAUCAC [Exclusion Theophylline A] | 27.6 |  | 49.4 |  | 33.1
GUCGGUACGUCGGCAAAGCCGAUGUGCCAGCGAGGACCGGUACGGCCGCCACUCGUACAUGAGGAUCACCCAUGUCCGGUCCGAC [Omei Trp SS A C v4] | 44.7 | 134 | 139 | 169 | 155
UGUGUAAUUGUCUGGUAGAUUUAUUUUUUUCGAGGACCGGUACGGCCGCCACUCGUUAUUUACAUGAGGAUCACCCAUGUUAGCU [JR_ExcTryptoA_Sub007] | 12.4 |  | 22.3 | 15.5 | 
CGGUCGGUCGGCCGGUGAUUAUGGGAUGAAGGAGCGUGGGAAGCUACAGGUAGGUCGCAUCCGAAAGAUGAGGAUCACCCAUCUU [SSArg A #24Alt-Ms2 Mod] | 24.4 | 30.3 | 34.4 | 46.4 | 21.5
CUGCCAUGCAGAGAUACCAGUGAGCUCAGAACAUGAGGAUCACCCAUGUAGGUUGCCGAUCACCCUUGGCAGCUCUGCAUGGCAG [*$+%!] | 38.7 | 30.8 | 28.4 | 10.9 | 29.6
GGAGGUACCCGAAGGAGCGACAUGAGGAUCACCCAUGUCUCCCGUUAUGGGAGUUCCUUAGGUCAGGUAGGUCGCGGGUACCUCC [#1 Exclusion - Arginine B Attempt #1 (Inspired by Omei)] | 92.7 | 124 | 162 | 128 | 109
AAUAUAUAUCACGAACUGUGGUGUAUGUUCCGAGGACCGGUACGGCCGCCACUCGCGUGGUUCCACAUGAGGAUCACCCAUGUUG [XTryp A #8] | 17.3 | 16.8 | 29.4 | 23.2 | 22.5
ACUACGAAGACGGCCGCCACUGAUAUUCGUAGAUCCAUCAAUACAUGAGGAUCACCCAUGUAUAUCAGGACCGGGUCAAGAUGGU [Tryp B Ex t6] | 23.3 |  | 39.2 | 28.2 | 
